pKd: −log10 of the molar value.
Legend:
[1] = molecular target: hIL-4Rα–hIL-13Rα1 complex (human type II IL-4 receptor) (human) (UniProt P78552)
[2] = molecular target: IL-4Rα (Homo sapiens) (UniProt P24394); conditions: cited from earlier work
Chain of UniProt P24394 (P24394 26-232): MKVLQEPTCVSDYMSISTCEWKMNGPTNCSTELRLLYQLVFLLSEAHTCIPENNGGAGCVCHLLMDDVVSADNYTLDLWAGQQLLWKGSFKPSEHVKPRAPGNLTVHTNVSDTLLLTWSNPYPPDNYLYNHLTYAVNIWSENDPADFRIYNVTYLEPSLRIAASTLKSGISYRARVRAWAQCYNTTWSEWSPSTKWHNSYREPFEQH

Chain of UniProt P78552 (P78552 22-343, chain 1 of 2): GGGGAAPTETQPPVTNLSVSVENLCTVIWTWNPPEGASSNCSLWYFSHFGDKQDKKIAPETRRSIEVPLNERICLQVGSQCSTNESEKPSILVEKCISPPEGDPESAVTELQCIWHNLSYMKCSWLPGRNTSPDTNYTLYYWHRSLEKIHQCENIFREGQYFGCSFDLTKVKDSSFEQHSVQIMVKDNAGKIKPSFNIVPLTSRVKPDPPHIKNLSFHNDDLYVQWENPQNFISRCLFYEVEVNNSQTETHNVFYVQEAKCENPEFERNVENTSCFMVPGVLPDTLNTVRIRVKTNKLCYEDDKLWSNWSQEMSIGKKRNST
Chain of UniProt P78552 (P24394 26-232, chain 2 of 2, further chain): as the sequence (P24394 26-232) above

Substance: human interleukin-4 (hIL-4) (from UniProt P05112 25-153) (ligand)
- pKd [1]: 7.00

Substance: IL-4 (from UniProt P05112)
- pKd [2]: > 9.00

— paper PMC10697138
